Experiment: soluble on expression in E. coli; label from the status in PepcDB or PDB records

Question: Which “soluble on expression in E. coli” value does the source give for “MTTAHFYCQYCTASLLGKKYVLKDDSPYCVTCYDRVFSNYCEECKKPIESDSKDLCYKDRHWHEGCFKCTKCNHSLVEKPFAAKDERLLCTECYSNECSSKCFHCKRTIMPGSRKMEFKGNYWHETCFVCENCRQPIGTKPLISKESGNYCVPCFEKEFAHYCNFCKKVITSGGITFCDQLWHKECFLCSDCRKDLCEEQFMSRDDYPFCMDCYNHLYANKCVACSKPISGLTGAKFICFQDSQWHSECFNCGKCSVSLVGKGFLTQNKEIFCQKCGSGMDTDI” here?
Answer: The value was “soluble”.

Question: For “MTTEHETHAAELGAPEPECARCGKVLPLCICDTVEPIASRTQLLILQHPQEQDRALGTARLTAQHFKNAEVRIGLSWPSLSKALGRTVHDPSRWAVLYLGSARAAELAEGREILAVDAKGQPEPHQDMILDEIEGVVLLDGTWSQAKALWWRNAWMLKCQRVILDPSAPSRYGRLRKEPRRDGLSTLEAAAMLLSRLEHRPEIETKLLEAFDRMLARFKQVQAERPDLAPKPKKRDWRRKKRGLEHHHHHH”, which “soluble on expression in E. coli” value is on record?
Answer: The value was “not soluble”.

Question: Which “soluble on expression in E. coli” value does the source give for “MTTEKEMKQIQNEFKERMDEGELLNCMRCGFCLPSCPTYIESGFQETHSPRGRIALMKAVADGMIEPDEDVERSLSLCLGCRACEPVCPSGVKYGQLLEEARDIIHQNKKHSLGERVMRKTAFHELFPHQNRMRSAVSLIGLYQRSGLQTAVRKSGMLRVLPEHLRTMEAVLPDVPKSKDMKHRPRFLPSIGPMKKRVAFFSGCLMDTMFLPTNNATLKLLQLAGCDIVIPPEQACCGALHGHSGEKNTGKELAKQNIAAFEALDVDAVITNAGGCGAFLTEYDHLLKDDPEWSERAAAFVQKLKDFSSVLVELDFHQMDLALETPQVVTYQDSCHLRNVMHTSLEPRQLLKSIKGAEFKEMEKADSCCGSAGIYNIVEVEMSMKILDSKMAAVKATEAILIVTANPGCLLQMKLGIEREGLSGKVRAVHLADLLLEAAGHKTS” here?
Answer: Its value is “not soluble”.

Question: With “MTTELETSFADLGLSAPILSALTDLGYEKPSPIQLECIPHLLNGRDVLGMAQTGSGKTAAFGLPLLHNIKADLKSPQVLVLAPTRELAVQVAEALSSFSKHINGVNVVALYGGQRYDVQLRALRQGPQVVVGTPGRLLDHLKRGTLNLSNLSGLVLDEADEMLRMGFIEDVETIMAQIPAEHQTALFSATMPEAIRRITRRFMKEPQEVRIQSSVTTRPDISQSYWRVGGGYRKNEALVRFLEAEDFDAAIIFVRTKNATLEVAEALERSGYNSAALNGDMNQALREQTLERLKDGRLDILIATDVAARGLDVERISLVVNYDIPMDSESYVHRIGRTGRAGRAGRALLFVENRERRLLQNIERTMKLTIPEVELPNADLLSERRLAKFAAKVSQQLESSDLDMYRALLAKLQPEEEFDIETLAAALLKMAQGERPLILPPEAPRRPQREFNSRDDRGNDRGSRDRGDSRRDNRSDSRSADSRDGGERPARRERRDVGEMELYRIEVGRDDGVEVRHIVGAIANEGDISSRYIGNIKLFASHSTIELPKGMPGEMLSHFTRTRILNKPLNMQLLGDAQPHERRERPAGGNGGERRGGGRPFSGERREGAGAPPRRSFSGDRAPTGGGERRGNRDGQRSAAPRRDDAAAPAAAAAAPARRRFGDA” as the sequence, how does the “soluble on expression in E. coli” value read?
Answer: The value was “not soluble”.

Question: With “MTTILSVRDVKKVIGKKTIVENISFDVKQGEVFGFLGPNGAGKTTTIRMLVGLIKETEGTISIGGYSIKENFREAMRQIGSIVENPELYTYLTGWENLKQFARMLGGISDERIIEIAHMVHLDERIHDKVKTYSLGMKQRLGIAQALLGNPKLLILDEPTNGLDPAGIRELREFIHKLVKEENMSVFISSHLLSEVQMICDRVAIIHKGKMITVAKVEELIKTASDRVEWIVTPISKTKDMLVDAEEVREVSIEGDRLLCRMHISSISNWNKTFVENGIDVHSVKELVFTLEDLFIELTRGEQHA” as the sequence, how does the “soluble on expression in E. coli” value read?
Answer: The value was “not soluble”.

Question: With “MTTKNTLQPTEAAYIAGFLDGDGSIYAKLIPRPDYKDIKYQVSLAISFIQRKDKFPYLQDIYDQLGKRGNLRKDRGDGIADYTIIGSTHLSIILPDLVPYLRIKKKQANRILHIINLYPQAQKNPSKFLDLVKIVDDVQNLNKRADELKSTNYDRLLEEFLKAGKIESSP” as the sequence, how does the “soluble on expression in E. coli” value read?
Answer: The value was “soluble”.

Question: Which “soluble on expression in E. coli” value does the source give for “MTTKYAALLRGINVGGSRKVPMADLRALLTSLGHDAVRTHLQSGQAVFAAAHGDEDSLAAELAEAIGERFGFPVDVIVRDHAYLRSVVEACPFPAAELEARQLHVTYFSAPVEADRFAAIDAPAFRPEEFRLGDRALYLYAPDGLGRSKLAEALARPRVNKGLVATSRNWNTVTKLVELTGP” here?
Answer: Its value is “not soluble”.

Question: For “MTTLAIDIGGTKLAAALIDNNLRISQRRELPTPASKTPDALREALKALVEPLRAEARQVAIASTGIIQEGMLLALNPHNLGGLLHFPLVQTLEAIAGLPTLAVNDAQAAAWAEYHALPDDIRDMVFITVSTGVGGGVVCDGKLLTGKGGLAGHLGHTLADPHGPVCGCGRVGCVEAIASGRGMAAAARDDLAGCDAKTLFIRAGEGHQQARHLVSQSAQVIARMIADVKATTDCQCVVIGGSVGLAEGYLEQVRAFLMQEPAPYHVALSAARYRHDAGLLGAALLAQGDTL”, which “soluble on expression in E. coli” value is on record?
Answer: The value was “not soluble”.

Question: With “MTTLQEAYLAFKSAQIIDLTHQINENSPHFPLLPALEKKDLFTLKDGFHIQQFTVVGQYGTHIDAPIHFVEGGAWLDELPLEDLLLPMYVIDKSQAVADNPNYELSKADILAFEEKYGQIEEGAFVAFRSDWSKRWPSQEEFRNLDTAGAQQTPGWSHEALEFLIHERQVKAVGHETFDTDSGQAVAENGKLVEEYYLLDQGIYQLEVLNNLNLLPATGSFISIAYPHWEKATGSPVRAIAYIAQELEHHHHHH” as the sequence, how does the “soluble on expression in E. coli” value read?
Answer: Its value is “soluble”.

Question: With “MTTMGEDEAPALPKKSPLPEKIDEADVDDDPDDKVIKIVVVGDGASGKTSICQRFAKESFDKSYHQTLGLDFFSRRITLPHEMQVLVQVWDIGGQSIAGEMIDKYLTGANIVFLVYDVTNSKSFENAVDWLSVVKKNTKSSETPVKLVLMGNKTDLEERRVVSVEAHKNFATSNDMMPTYVSAKTGDTVFLTFRQAVAEVLNVGLSRAEVEADIEIVQGSVIEQPKQSDASYARRSDQSRSTSVCSIT” as the sequence, how does the “soluble on expression in E. coli” value read?
Answer: Its value is “soluble”.

Question: Which “soluble on expression in E. coli” value does the source give for “MTTMVNVDTLPEYEKSQIKRALELGTVMTVFNARKSTPERRTVQMIMETRQVAWSKTADKIEGFLDIMEIKEIRPGKNSKDFERAKAVRHKAECCFTILYGTQFVLSTLSLATDSKEDAVKWLSGLKILHQEAMSASTPTMIESWLRKQIYSVDQTRRNSISLRELKTILPLVNFKVSGIKFLKDKLVEIGAQKDELSFEQFHLFYKKLMFDQQKSILDEFKKDSSVFILGNTDRPDASAVYLQDFQRFLLHEQQELWAQDLNKVRERMTKFIDDTMRETAEPFLFVDEFLTYLFSRENSIWDEKYDAVDMQDMNNPLSHYWISSSHNTYLTGDQLRSESSTEAYIRCLRAGCRCIELDCWDGPDGKPIIYHGWTRTTKIKFDDVVQAIRDHAFVTSSFPVILSIEEHCSVEQQRHMAKVFKEVLGDMLLTKPTEASADQLPSPSQLREKIIIKHKKLGPKGDVDVNVEDKKDEHKPQGELYMWDSIDQKWTRHYCAIADAKLSFGDDIEQAVEEEPVQDTPPTELHFGEKWFHKKVESRTSAEKLLQEYCAETGAKDGTFLVRESETFPNDYTLSFWRSGRVQHCRIRSTMENGVMKYYLTDNLTFNSIYALIQHYREAHLRCAEFELRLTDPVPNPNPHESKPWYYDSLSRGEAEDMLMRIPRDGAFLIRKREGTNSYAITFRARGKVKHCRINRDGRHFVLGTSAYFESLVELVSYYEKHALYRKMRLRYPVTPELLERYNMERDINSLYDVSRMYVDPSEINPSMPQRTVKALYDYKAKRSDELTFCRGALIHNVSKEPGGWWKGDYGTRIQQYFPSNYVEDISAGDAEEMEKQIIEDNPLGSLCKGILDLNTYNVVKAPQGKNQKAFVFILEPKKQGDPPVEFATDRVEELFEWFQSIREITWKMDTKENNMKYWERNQSIAIELSDLVVYCKPTSKTKDHLENPDFREIRSFVETKADSIVRQKPVDLLRYNQKGLTRVYPKGQRVDSSNYDPFRLWLCGSQMVALNFQTPDKYMQMNHALFSLNGRTGYVLQPESMRSEKYDPMPLESQRKILMTLTVKVLGARHLPKLGRSIACPFVEVEICGAEYDSNKFKTTVVNDNGLSPVWAPTQEKVTFEIYDPNLAFLRFVVYEEDMFSDPNFLAHATYPIKGIKSGFRSVPLKNGYSEDIELASLLVFCEMRPVLESEEELYSSCRQLRRRQEELNNQLFLYDTHQNLRGANRDALVKEFNVNENQLQLYQEKCNRRLREKRVSNSRFYS” here?
Answer: Its value is “soluble”.

Question: Which “soluble on expression in E. coli” value does the source give for “MTTQITAEDVEAYLGTRENSPTMSDTVDAAVDLVESWKSTPQEKWPPRWRRGCIMLAARMDRRRNSPAGVDTMGEIGVVYVSRKDPDIAQLLEIGDFSKPIAR” here?
Answer: Its value is “not soluble”.

Question: Which “soluble on expression in E. coli” value does the source give for “MTTQQKKSSTRQGFKTGESIVYPAHGVGQIVAIEEQEVAGMKLELFVIDFEKDKMRLKVPVAKAVGIGMRKLSETDFVDRALKVVQGKARVKRTMWSRRAQEYDAKINSGDLISIAEVVRDLYRAENQPEQSYSERQLYEAALDRMAREIAAVNRMSETEAVRLVEANLNKGPKRGKAIEEDDAQDEAA” here?
Answer: Its value is “not soluble”.

Question: For “MTTRCPWVGEQSIYIDYHDKEWGKPEFDSQKLFEKICLEGQQAGLSWITVLKKRESYREAFHQFDPKKIAKMTALDIDACMQNSGLIRHRAKLEAIVKNAKAYLAMEKCGENFSDFIWSFVNHKPIVNDVPDLRSVPTKTEVSKALSKALKKRGFVFIGETTCYAFMQSMGLVDDHLNDCPCKTSLEHHHHHH”, which “soluble on expression in E. coli” value is on record?
Answer: Its value is “soluble”.

Question: With “MTTSPTENAHAVVLGGSVAGCLAAAVLARRYPRVTIVEKSDFHNETGARQSVPQEHHVHLLLQRGKDIMEAIFPGFLSELEQAGALVADLGHDVKWYQAGRWKNRYRCGIHAHYCSRRLIDTHLRRRVARLPQVTVLSRTQMEGLDFRRDGDRLAVGGVRLRNDDHAWTLDADALVDASGRGTRLPGWLETAGLGAVDKSMVKTDLGYASRIYRRRPEFANQWKVLLVLATPPHQRAMGVISPIEGDRWMVTTGGWFGHYPDRDPNAFLKALAALPMPDIHQVIRDAEPLSDVSVFRMPGSLRRHYDRLPRWPDGLLVVGDALASMNPLYSQGMTLCALEAECLDENLDALLAGGLRCQELQEKLCRALDPAWQMAVTEDLRFPETEGERGWRTRFLHWYGAGLTRLSAYHRGALEAQIGVSNLIVNPSRLYAPPIAARIVLGSLLPGEARTLEHHHHHH” as the sequence, how does the “soluble on expression in E. coli” value read?
Answer: The value was “not soluble”.

Question: For “MTTTTPIRLLVRPITAGDNLAIANVIREVSAEFGLTADKGYTVSDPNLDHLYELYSQPRSAYWVIEVDGHIAGGGGVAPLLGGEADLCELQKMYFLPILRGKGLAKQLALQALAFARQQGFGRCYLETTASLTSAVGLYERLGFEHIGGAMGNTGHVDCEVTMLKTL”, which “soluble on expression in E. coli” value is on record?
Answer: Its value is “not soluble”.

Question: Which “soluble on expression in E. coli” value does the source give for “MTTVRQRIDTQHRDAIHDAQLNIYGSRLATCGSDRLVKIFEVRPNGQSYPMAELVGHSGPVWKVSWAHPKYGGLLASASYDKKVIIWNEQQGRWQKAYEWAAHEASTTCVAFAPHQYGLMLASASADGDIGILRYDNSSNEWISSKIQKCHEQGVNSVCWAPGSADPAAKKRLVSAGNDKNVKIWALSQFGAKIFRDNGSKCHVTIRNARE” here?
Answer: The value was “soluble”.

Question: Which “soluble on expression in E. coli” value does the source give for “MTVATYEVEKQFLTYVKKIQNYGEALSLMFWDLRTGAPKKGVDQRSEVIGMLSSEVFAMSTSDEMGNYLTELEALISEDKLSETTKKMVEECRKEYDRNKKIPQAEYEAYVKLEAKAESVWEEAREKSDFEMFRPYLEQIVEFKKKFITYWGYETYKYNTLLDMYEPGITVEVLDHVFGQLRERIVPLVKEISESQKRLKTSALSEHFSKEKQKNFTLELLKQLNYDFEAGRLDETVHPFEITLNRGDVRITTRYDEKDFRMAVFGTIHECGHAVYEQNIAEKFEGTPLCSGTSMGIHESQSLFFENFIGRNKSFWKKNYDLLKEYSDGQFNDISVDEFYDAINESKPSFIRIEADELTYPLHVMVRYELEKELFDGTLQVKDLPAAWNDKMEAYLGIRPANDAQGVLQDVHWAGGSFGYFPSYALGYMYAAQFKQRMVKDIPNFDALLEEGNVTPIREWLTENIHQYGKTKKPLEILEDVTGEGLNANYLADYLEAKYREIYEL” here?
Answer: The value was “not soluble”.
